Experimental findings from patent US20170275359A1 (Genentech, published 2017) are described below.

Numbering of substitutions follows the chain as printed.

The chains are these.
B1: anti-EphrinB2 monoclonal antibody clone 31.19 (antibody, V domains shown)
VH: EVQLVESGGGLVQPGGSLRLSCAASGFTITGSWIHWVRQAPGKGLEWVAVIYPNNGATDYADSVKGRFTISADTSKNTAYLQMNSLRAEDTAVYYCARTSAWAQLGAMDYWGQGTLVT
VL: DIQMTQSPSSLSASVGDRVTITCRASQDVSTAVAWYQQKPGKAPKLLIYSASFLYSGVPSRFSGSGSGTDFTLTISSLQPEDFATYYCQQSYTTPPTFGQGTKVEIKR
notes: Synthetic phage antibody on the humanized 4D5 framework; also called YW31.19; 31.19 antibody
B2: anti-EphrinB2 monoclonal antibody clone 31.19.2D3 (antibody, V domains shown)
VH: B1 VH with I29V, T30S, G31S, S32G, Y52F, P53H, N55K, A57G
VL: B1 VL with Q89E, S91T, Y92D, T93S
notes: also called YW31.19.2D3; 31.19.2D3 antibody
B3: anti-EphrinB2 monoclonal antibody clone 31.19.1D8 (antibody, V domains shown)
VH: B1 VH
VL: DIQMTQSPSSLSASVGDRVTITCRASQDVDSSLAWYQQKPGKAPKLLIYAASNLESGVPSRFSGSGSGTDFTLTISSLQPEDFATYYCQQSDDNPFTFGQGTKVEIKR
notes: also called YW31.19.1D8; 31.19.1D8 antibody

T1 sequence (P52799 28-229 limits assumed): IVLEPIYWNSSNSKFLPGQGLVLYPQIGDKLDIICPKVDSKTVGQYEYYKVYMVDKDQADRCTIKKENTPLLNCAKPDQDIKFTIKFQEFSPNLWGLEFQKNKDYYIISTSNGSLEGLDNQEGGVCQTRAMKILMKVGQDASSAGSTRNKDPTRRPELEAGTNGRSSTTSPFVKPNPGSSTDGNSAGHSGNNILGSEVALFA

The first test concerns the target T1, human EphrinB2-His (human, UniProt P52799 28-229, limits assumed).
T1 construct: Soluble His-tagged protein; also called His-tagged human EphrinB2; hEphrinB2; not shown: His tag
The test is described as follows: SPR BIAcore-3000, antibody coupled to CM5 chip (~500 RU), EphrinB2-His injected, 25 C. The protocol: (§1) To determine the binding affinity of mouse anti-ephrinB2 Mabs, surface plasmon resonance (SRP) measurement with a BIAcore™-3000 was used (BIAcore, Inc., Piscataway, N.J.). Briefly, carboxymethylated dextran biosensor chips (CMS, BIAcore Inc.) were activated with N-ethyl-N′- (3-dimethylaminopropyl)-carbodiimide hydrochloride (EDC) and N-hydroxysuccinimide (NHS) according to the supplier's instructions. Anti-EphrinB2 antibody was diluted with 10 mM sodium acetate, pH 4.8, into 5 ug/ml before injection at a flow rate of 5 ul/minute to achieve approximately 500 response units (RU) of coupled antibody. Next, 1M ethanolamine was injected to block unreacted groups. For kinetics measurements, two-fold serial dilutions of either human or murine EphrinB2-His molecules (0.7 nM to 500 nM) were injected in PBS with 0.05% Tween 20 at 25° C. at a flow rate of 25 ul/min. Association rates (kₒₙ) and dissociation rates (koff) were calculated using a simple one-to-one Langmuir binding model (BlAcore Evaluation Software version 3.2). The equilibrium dissociation constant (Kd) was calculated as the ratio koff/kₒₙ. “NA” signifies that the measurement was not performed.
(In SPR one partner is held on a chip, and binding of the other changes the refractive index at the surface.)
In turn, B1 gave a Kd of 5.2 nM. This counts as single-digit nanomolar.
In the case of B2, the affinity, expressed as Kd, was 0.08 nM.
The same measure, in the same setting: the result for B3 reads 0.07 nM.

The target of a further test is T2, murine EphrinB2-His (murine, UniProt P52800 29-232, limits assumed).
T2 construct: Soluble His-tagged protein; also called His-tagged murine EphrinB2; murine antigen; not shown: His tag
T2 sequence (P52800 29-232 limits assumed): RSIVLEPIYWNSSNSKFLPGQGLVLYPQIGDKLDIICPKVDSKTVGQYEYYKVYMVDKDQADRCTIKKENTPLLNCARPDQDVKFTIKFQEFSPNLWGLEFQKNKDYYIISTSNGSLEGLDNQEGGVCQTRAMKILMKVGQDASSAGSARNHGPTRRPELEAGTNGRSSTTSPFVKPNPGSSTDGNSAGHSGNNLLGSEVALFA
Described as above. On the procedure: as §1
The molecule B1 came in with an equilibrium dissociation constant (Kd) of 0.23 nM.
Consider B2, for which binding was put at a Kd of 0.015 nM. Against the preceding molecule, the Kd is about 15-fold lower.
As to B3, the affinity, expressed as Kd, was 0.017 nM.

For orientation: Kd means the free concentration of one partner at which half of the binding sites on the other are occupied at equilibrium, for simple one-to-one binding.
